As usually defined, the stoichiometry N is the number of molecules, sites or subunits per partner or assembly.

We go through three molecules from publication PMC3992431 (Current biology : CB, 2014).

Like-named read-outs stand apart in the source and are kept apart here.

The target of data set [1] is T1, actin filaments (rabbit, UniProt P68135 1-377). Briefly: co-sedimentation.
Data set [2] addresses T1, actin filaments. Briefly: co-sedimentation. The source holds these as a separate data set.
Data set [3] deals with the molecule itself. The data set is described as follows: two-color TIRF microscopy.
Data set [4] deals with the molecule itself. Briefly: two-color TIRF microscopy. This is another data set of the same source.

B1: INF2-FF (domain or fragment)
chain: not shown
In the case of B1, the “fold lower affinity than INF2-FFC” value with actin filaments [1] was determined as 5 fold.

B2: INF2-FFC (domain or fragment)
chain: not shown
B2: the “stoichiometry N” value with actin filaments [2] is 1 INF2 monomer:actin monomer.

B3: GFP-INF2-FFC (domain or fragment)
chain: not shown
For B3, the “stoichiometry N” value in data set [3] amounted to 2.17 molecules; in data set [4], 2.06 molecules.
